The data set is described as follows: soluble on expression in E. coli; label from the status in PepcDB or PDB records.
For “MAHHHHHHMIVDSAVTERVVLQQQQELDAAERRCAAAEQRLEVELQKTFWRFLTTSAPDAVAAANRKQQSLGWANGGDGAGADSSLYRAEVDVSRFAEVRKAASPNPHRCNTAVAPFSPVRLVPVRTIKLSNEVGDASAAAAASRTQSPSKRSQDSALQPIVLDISPVSALSRCLGCCSGTQLGAIASSVSSAAEEHLLRLAHTRHSVLLFIGSESAAMDVMQSCKAPELLLGAGHSCRDRFQPLANHPVLRVLFTTRLWGANVVLLWNPAQDAALAVAAQAVVEDALELAYAWDADMFSVAVLEGARLPSYAGAGGVSAVATGASSTSAAFFASQAVSMEVLRQLRNSVTRELLDTAGMRRARRWQGTATWMQQGIGSAAAATTGTHMCPRAVGVLYVSQSAQQEQENQLQHQEVSCTASSIRSNAASPLRGDNSIVSVMSSSFLFSPTSPASAFRGPCITFNTPLAIRAFLPLAEEYFIREQPSLVRGSSRGGGDGHHGVSEAASSSTLNQEGGGARGLLRRTASATATEDDDASFSSEKDARFSPASLSATSAPASSPAIDAIRASGSGGEAGLRRQPEMTLESLIQYAFGDLAEIL”, the “soluble on expression in E. coli” value is “not soluble”.

Take “MAHHHHHHMIYGKDGKYPVGEILEYNNYNLSGQSLVEKKEREKLSIDYYEDLRKAAECHRQVRKHMQAFIKPGKKMIDIAQETERKTKELILAEKLKCGWGFPTGCSLNHCAAHYTPNYGDETVLKYDDVCKLDFGVHVNGYIIDCAFTIAFNEKYDNLIKATQDGTNTGIKEAGIDARMCDIGEAIQEAIESYEIELNQKIYPIKAISNLRGHSINKYIIHGGKCVPIVRQKEKNEIMEEGELFAIETFASTGKGYVNHENECSHYMRNPEKQFVPIRLNSAKTLLKVINDNFDTLPFCNRWLDDLGQTRHFMALKTLIDLNIVEPYPPLCDIKNSFTSQMEHTILLRPTCKEVLSRGPDF”: the “soluble on expression in E. coli” value is listed as “soluble”.

Consider “MAHHHHHHMKETLVFATARQQFLQHGYAIFSAAIGASLIERLRPALTASTVARARCFIDVPDIESMLKSKSRLSDPLYTKVMARLQRRKYMLRRYREEKKRRKQLKEVVANFLNGREKEDLTGEELWKLSELLAKEAVSVPGKECRSTIKNDPQMLRAINEYRCNVWMTNKELENIVRDPSFWQPIGAIASDVGGVERPVLFADAPMFREPYGGPFGYHCTAPSIGVKTNGNQPLAVSLLVFTHRPDKQKMPLFVLKGSHRFVQDQYLRYVLPNVLSLPFLPMESHIPEQIKRFNFDSSVVGSPIEGGDAIGPGTVVVLNPHLMIGVGANASTERVAVYKLNLIAENAPPFLKAPSWITAWRSLPREVNFASPVVFPPFYDKTMSTTSAR”, for which the “soluble on expression in E. coli” value is reported as “not soluble”.

Regarding “MAHHHHHHMKLEEVKDIQKIERIGAHSHIRGLGLNDCLDARYCSEGMIGQMSARKAAGIVLRMIKEGRISGRAILLAGQPGTGKTAIAMGIAKALGEDTPFTHISGSEVYSLEMSKTEALTQAFRRSIGVRVKEESEVIEGEVVEIEIEKFNERDINNKNKKLGKMILKTTEMETLYDLGSKMIEALQKENITAGDVICIDKGTGKITKIGKSFARSKDYDAMDPNTLFVQCPEGELQKRKEVVHTVTLHDIDAINSRTQGFLALFSGDTGEIKNEIREHIDMKINEWQEDEKAEIVPGVLFIDEVHMLDIECFSYLNRALESEQSPIVIMATNRGITHIRGTDYKAPHGIPLDLLDRTLIIPTYPYKHQDILKILEQRAEEEDVDIDEYAKELLCKIASESSLRYALHLITLANLVSKKRKATEVTVQDVRRVYNLFIDVKRSTQYLIEYQNEFMFSELPKEELSVKEEDSSEEKRELHEKNSENSSTSN”, the “soluble on expression in E. coli” value is on record as “soluble”.

Turning to “MAHHHHHHMKLLSSVGRLSVVAGGLSLIPYTFIYDVDGGERCVMFNRFGGVSENTYGEGSHFYIPWFQTPYIYDIKMKPKVINTTTGTRDLQIVTLSLRLLFRPHTKQLPYLHSTLGPDYDERVLPSIGNEVLKAVVAKYNAESLLTQRDKISKEIRESITARAKHFNILLDDVAITHLSYGKEFAKAIEDKQVAQQESERVKFIVAKTEQEKIAAVIKAQGEAEAAKLISSAVKEYGNSLLEIRKLEAAKEIAENLSKSKNVTYFPASFNILLNPKNL”, the “soluble on expression in E. coli” value is listed as “not soluble”.

With “MAHHHHHHMLEFLVTTQPSRRIVCRNEATYIYFWPYLFSREVPGALQLCRWAARRGAAVHGAVRLQPSETPNAAHRCYLTVTRPVAAGRTLISLPAALSLSVSSPESRKGTFIGRYSALESFAQLLARELHNPRSPHRAYLEFLHDLHNSGTDEVSDALLAGLRYERAAVLVDQLDAMYAGNSLQARGAANAPFLDKEQLTSASQRVEWVRLHQLQRRLEQGVPHFAAKSTAWALSMALSRAMEDDAEGLSLYPLIDFCAHSFEPNAYICVGEDERIAATRPVRWADSSGEPLLHVVTRRLLHAGEKVTLRWHWRPVKTTEDAEFWQMRFGYVPQSE”, the “soluble on expression in E. coli” value was “not soluble”.

Regarding “MAHHHHHHMLHPSNALLTALLFVTTRMTNVESVKKKPLPYVKNYNLCDRSVRGIPSRHTKGTIRASTNPITTAPNEDKSDVYTPPISSGN”, the “soluble on expression in E. coli” value is reported as “soluble”.

Take “MAHHHHHHMLKECDFFSDSYGCIITKSIGYQAPFPLVRLSNGRSTKIPDGACVQGACFVSFGADHTGSRGRLLTMDVSARASSVSFLQLLSSSCPPVTLEPEVEYVSKIETTETASAVVTRGGGNRWSTSVYVQGEDVPDTAYSRRVHFHRASVASLFGFSLWLMEVAKDDYGAQAVHRYSLSTALTGGVSESTLVSANLGRPLDIIALSEDTALVLGTNGVAMADRRQRASDILFFSNLLNGGATGDRQLLTFGEDYTLRAYDLRDVSAPLFQATSATYLRIKSEIDTRASLLVTSDITGVFDVLHVTTVASLQHSGDTVLDAAVLPSRHNGVRVCTSTGSGMIYDWTVT”: the “soluble on expression in E. coli” value is “not soluble”.

On to “MAHHHHHHMLKFFTEKANHQALKAVLCAVFVQKPLEVTLGSTYSTPYLQLPKSRALLYSCNEAARLIWSTHAAPLPADNSLEGEAEWLEWESTVLTPALTPLYTHRRITGEAEAALKKLDSTIEEHQGTVAVKGAPSSTSFLVDSVLFASLLPALCEGGLLPAAQAARVPHLVKWFQAFQAEHAELIASAFDVLSVQECGDFLRVP”, for which the “soluble on expression in E. coli” value is given as “soluble”.

Consider “MAHHHHHHMLRGTRGFLAVSPGVGIAPETTPVKYTPMMLNIQNMMWWNGKRNLYRATYREKTWYEISRTGAFTKGRRPVMRQKYSREALQAALAMVPPGFEVADVPRPPQRILAQSEGIVGRWYSNYWTLHSMRYQCLLAGVEWPLGERQRPRTNYDEPFFFADFEESKAIQDYRSRWINVNRSLVGMTKRMKEAEEEARYMQFRKLQDTFWSNRKVLVNRVKSMYNQGARTSAKDMPIKTINIKAFLSE”, for which the “soluble on expression in E. coli” value is reported as “not soluble”.

Turning to “MAHHHHHHMLSKGNVKNLATDEINEMIDNSLKSGDTDEAPYFLQQNNIYWETGHRTYIPFFHFMIHKYTTKIIDDQIRKFTESVKSVHHTPYVFHKDGYFRSYYGDPDINMVFNLKKNTNFIFNSTGTHNSYSLLCNNNTYDKSTHIFDQVLMSAFKLDLKSVLENNV”, the “soluble on expression in E. coli” value is “not soluble”.

Regarding “MAHHHHHHMLSSISPKRYSFDKQGNIKEIDFLSCKSVILPEQHLNAKDNFICTTSILPNFYETPPDKASKLKMTQENNIDKANMGTNVYVQRTSSLSNMNVLQYADEVHNNLQDSNVHEINEPLIFADVNQYCGDANTQGIDPGVVAVSNALFAYNSAFQSIPIKSSPNVFKRRSKGEANSEWSNAFVTRVDPYECTDPEEEFKPYEVTKYYDEGKVKTVFNFDQENYNQDM”, the “soluble on expression in E. coli” value was “soluble”.

Turning to “MAHHHHHHMMRIKQKAFVGKKICIAWEVLHDGKGWKAQGKALQILRFYAFSSEVYLMCRIRDADDKKQICNLVKAVDGIERHRVLFCTTEKGYEAFTRQIDPSLLITNNAAQVAFLKRVIQTLVLVGGDGVVASNVACVPSVEAIAVDLE”, the “soluble on expression in E. coli” value was “not soluble”.

With “MAHHHHHHMMSVANAAYLPLIGSCLTAGEQTALQCSLPLLSQRYRGTPMQLWGKVTGIKANYWVAQAFPNGEFAPAVSFYSIDGGSTWTMLSELTEEQAALCEALRGPYQGVPSYEYMMRQDLPAETDEAAVTMPTPDDILKKAEDDIAAARAASDANSDADESEGDDEEQDDEEEEDEEDAGAVLAPRKRMAKFRILSVTEAMRLAHFVQLHDADCRLTVRGMYVLQDGAAVGARNSTFGGQPLHNAKKPSCYVKMARAGTEERNRILYGLTYNPHTDYLMPITDDAPAGVWSVKYNATANVVSVRNLFYEGSLFWYRPGTLECGQVYCGPGERNFDLCFML”, the “soluble on expression in E. coli” value is reported as “soluble”.

Take “MAHHHHHHMNEVVPHVAELMTDQYANFLIQKLFDMMPQDVRYKVARVAAPKIISIALTPHGTFSVQKMVETIASREEMDILREALSKDVVRLVKDAHGNHVIQKVLQRFSHADKEFIYAAVGSDCISIAKNKQGCCVLQRCLEYASCSQRATLVNQILRCCLQIAEDPFGNYVLQYVLESNDSKTTDTIAIAFLPHLVQLCMNKFSSNVIEKVLRGASQPVQEMYVETMCSPDVVSRLIQDDFGNYVLQTALTICSSAQAESLVSAVRPLMPIIRNAPYAKKLEGKIDGIVHKTAGNDRNSFAEYEKSRQGEMNEQNCDILLPHHARESSVAPHQQLSS”: the “soluble on expression in E. coli” value is listed as “not soluble”.

As for “MAHHHHHHMNIFDHQIKNVDKGNVVAILGAQWGDEGKGKIIDMLSEYSDITCRFNGGANAGHTISVNDKKYALHLLPCGVLYDNNISVLGNGMVIHVKSLMEEIESVGGKLLDRLYLSNKAHILFDIHQIIDSIQETKKLKEGKQIGTTKRGIGPCYSTKASRIGIRLGTLKNFENFKNMYSKLIDHLMDLYNITEYDKEKELNLFYNYHLKLRDRIVDVISFMNTNLENNKKVLIEGANAAMLDIDFGTYPYVTSSCTTVGGVFSGLGIHHKKLNLVVGVVKSYLTRVGCGPFLTELNNDVGQYLREKGHEYGTTTKRPRRCGWLDIPMLLYVKCINSIDMINLTKLDVLSGLEEILLCVNFKNKKTGELLEKGCYPVEEEISEEYEPVYEKFSGWKEDISTCNEFDELPENAKKYILAIEKYLKTPIVWIGVGPNRKNMIVKKNFNLN”, the “soluble on expression in E. coli” value is reported as “soluble”.

Turning to “MAHHHHHHMNINKILFSKVGEVVKNGNGGMNMQQGASQLLSGKKLIYISKPTHGGFIYWKCRELIHTIKKKTKRCARYLDINHDFSRAALVGVPKTSYDPKNNIFYIQMDNEEWAGNFYKNGPSGVLMWGVMFFAKVCKMGKNALHTIRAAPFGRFAE”, the “soluble on expression in E. coli” value is “not soluble”.

Take “MAHHHHHHMNNSLLGSLFAKRTKEPRDLDAAEMPQLRTGRSRASSESSTTSARSQRDGKKKKQQRRHPGKRRDAQDSDSGDEGVRQHSTPLTSPAPHPRASSVGSEFSDIEENPRPRNQRRSSGKVLRSSGTVAGAEKAKADERPPMAHSTPEVLPGADNLATNPLGEAGAGGEGAAGGQRHLPPMSQSAPMTSGRGSAAETVAVLRKEGSIEASQQQASTLTAGQLCGVAANSTVSFSGDDAAVLGASLNNTCSAATTISHHPTQPLAPAPGSSSGSPEDHKGSPPRACSSAEEGKKCDNRDSNTRRAVSGKDGEEMTHVDTEKQQPHDRSGDTPDRDVGASGKAWEGQRDATSAVEKDTHPLLDTASLRHTLDSFGSRPSSKLRRRSLGIGGSSKCVPAMLDRSRDGDGTSMTPSDGDEILKGLSFFNAASGEFVLTNHDIHSLEAFLFGTRALVVHINDLQKALLEMQHATDLARLL”: the “soluble on expression in E. coli” value is “not soluble”.

As for “MAHHHHHHMNSKASPAALPMRQGRGFQVIVHGVLEGAECVEVGSVFARTQLFFGPDWAFLESNSGYGEDAAADDDDLVEPTYSNNAEVVTQLCDCAKGPVPYFSFTAPFEFALTSTNPFGWPQLVITLHTVEGAGGSSGKGADGNDTQLLGSGESIIGYGRCFIPMKSGYHTKKVPMMQLESTTSKQQLISFLTREKPVLRDLSFLCTGDDQVMLHARPLDGYVKLNFSVMINGMESSGFEV”, the “soluble on expression in E. coli” value is “soluble”.

The record behind these values is the DeepSol protein solubility set.
